Here are results for 4 molecules from patent US20230140384A1 (Bristol-Myers Squibb, published 2023).

In experiment [1] the target is T1, hCD64 (human, UniProt P12314 16-288).
T1 construct: also called FcγRI
The experiment can be described thus: SPR % Rmax, compared with 12D6-IgG1f-P238K. As to the method:
(§1) The binding of human FcγRs to antibodies was studied by surface plasmon resonance using a Biacore 8K system (GE Healthcare, USA). For these studies, protein A was immobilized on flow cells 1-4 of the CM5 sensor chip using standard ethyl (dimethylaminopropyl) carbodiimide (EDC)/N-hydroxysuccinimide […] chemistry, with ethanolamine blocking, in a running buffer of 10 mM HEPES pH 7.4, 150 mM NaCl, 3 mM EDTA, 0.05% surfactant p20, to a density of ˜3000 RU. Purified 12D6-24-IgG1f antibody (10 μg/mL) or expression supernatants of all other antibodies (diluted to ˜10 μg/ml) were captured on the protein A surface to a density of ˜1000-1200 RU, and the binding of FcγR analytes was tested in running buffer consisting of 10 mM NaPO₄, 130 mM NaCl, 0.05% p20, buffer (PBS-T) pH 7.1 at 25° C., using 120 s association time and 120 s dissociation time at a flow rate of 20 μL/min. The data were analyzed using Biacore 8K evaluation software by determining the measured binding response as a percentage of theoretical maximum binding response for each antibody (% Rmax), based on the level of captured antibody, assuming 100% fractional activity and only taking into account protein mass without glycosylation.

Experiment [2] has as its target T1, hCD64. The experiment can be described thus: SPR, antibody captured on protein A, FcγR as analyte. As to the method: as §1
Background: In SPR one partner is held on a chip, and binding of the other changes the refractive index at the surface.

T1 sequence (P12314 16-288 limits assumed): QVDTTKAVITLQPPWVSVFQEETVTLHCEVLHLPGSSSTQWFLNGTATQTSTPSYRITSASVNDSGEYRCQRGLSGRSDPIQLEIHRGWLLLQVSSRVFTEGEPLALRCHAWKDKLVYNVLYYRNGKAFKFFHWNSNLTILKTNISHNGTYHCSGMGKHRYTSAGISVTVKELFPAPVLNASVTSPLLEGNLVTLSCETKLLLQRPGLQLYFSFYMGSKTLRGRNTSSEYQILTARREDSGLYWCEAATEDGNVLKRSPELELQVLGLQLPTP

B1: 12D6-IgG1f-L235E-P238K (antibody)
heavy: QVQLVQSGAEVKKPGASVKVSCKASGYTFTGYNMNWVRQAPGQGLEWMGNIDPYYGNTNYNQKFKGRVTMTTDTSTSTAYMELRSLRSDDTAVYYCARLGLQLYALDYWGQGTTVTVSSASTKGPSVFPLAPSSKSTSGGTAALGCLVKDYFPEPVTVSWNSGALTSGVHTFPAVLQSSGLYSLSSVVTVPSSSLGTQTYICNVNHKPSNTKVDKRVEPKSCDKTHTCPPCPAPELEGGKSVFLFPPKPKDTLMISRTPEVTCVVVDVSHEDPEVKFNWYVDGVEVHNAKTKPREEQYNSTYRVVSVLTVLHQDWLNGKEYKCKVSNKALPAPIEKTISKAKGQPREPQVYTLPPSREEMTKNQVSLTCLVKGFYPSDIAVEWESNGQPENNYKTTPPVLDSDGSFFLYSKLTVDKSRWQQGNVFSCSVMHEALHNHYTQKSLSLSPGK
light: DIVMTQTPLSLPVTPGEPASISCRSSQSLVHSNANTYLHWYLQKPGQSPQLLIYKLTNRFFGVPDRFSGSGSGTDFTLKISRVEAEDVGVYYCSQSIHVPWTFGGGTKVEIKRTVAAPSVFIFPPSDEQLKSGTASVVCLLNNFYPREAKVQWKVDNALQSGNSQESVTEQDSKDSTYSLSSTLTLSKADYEKHKVYACEVTHQGLSSPVTKSFNRGEC
notes: Tested as expression supernatant; copies: 2 + 2
B1: the “fold reduction of binding against P238K alone” value with hCD64 [1] was ~10 fold.

B2: 12D6-IgG2.3G1.3f-P238K (antibody)
heavy: QVQLVQSGAEVKKPGASVKVSCKASGYTFTGYNMNWVRQAPGQGLEWMGNIDPYYGNTNYNQKFKGRVTMTTDTSTSTAYMELRSLRSDDTAVYYCARLGLQLYALDYWGQGTTVTVSSASTKGPSVFPLAPCSRSTSESTAALGCLVKDYFPEPVTVSWNSGALTSGVHTFPAVLQSSGLYSLSSVVTVPSSNFGTQTYTCNVDHKPSNTKVDKTVERKSCVECPPCPAPEAEGAKSVFLFPPKPKDTLMISRTPEVTCVVVDVSHEDPEVKFNWYVDGVEVHNAKTKPREEQYNSTYRVVSVLTVLHQDWLNGKEYKCKVSNKALPAPIEKTISKAKGQPREPQVYTLPPSREEMTKNQVSLTCLVKGFYPSDIAVEWESNGQPENNYKTTPPVLDSDGSFFLYSKLTVDKSRWQQGNVFSCSVMHEALHNHYTQKSLSLSPGK
light: DIVMTQTPLSLPVTPGEPASISCRSSQSLVHSNANTYLHWYLQKPGQSPQLLIYKLTNRFFGVPDRFSGSGSGTDFTLKISRVEAEDVGVYYCSQSIHVPWTFGGGTKVEIKRTVAAPSVFIFPPSDEQLKSGTASVVCLLNNFYPREAKVQWKVDNALQSGNSQESVTEQDSKDSTYSLSSTLTLSKADYEKHKVYACEVTHQGLSSPVTKSFNRGEC
notes: copies: 2 + 2
B2: the binding result with hCD64 [2] is “no binding (tested: 1 µM)”.

B3: 12D6-IgG2.5G1.3f-P238K (antibody)
heavy: QVQLVQSGAEVKKPGASVKVSCKASGYTFTGYNMNWVRQAPGQGLEWMGNIDPYYGNTNYNQKFKGRVTMTTDTSTSTAYMELRSLRSDDTAVYYCARLGLQLYALDYWGQGTTVTVSSASTKGPSVFPLAPSSRSTSESTAALGCLVKDYFPEPVTVSWNSGALTSGVHTFPAVLQSSGLYSLSSVVTVPSSNFGTQTYTCNVDHKPSNTKVDKTVERKCCVECPPCPAPEAEGAKSVFLFPPKPKDTLMISRTPEVTCVVVDVSHEDPEVKFNWYVDGVEVHNAKTKPREEQYNSTYRVVSVLTVLHQDWLNGKEYKCKVSNKALPAPIEKTISKAKGQPREPQVYTLPPSREEMTKNQVSLTCLVKGFYPSDIAVEWESNGQPENNYKTTPPVLDSDGSFFLYSKLTVDKSRWQQGNVFSCSVMHEALHNHYTQKSLSLSPGK
light: DIVMTQTPLSLPVTPGEPASISCRSSQSLVHSNANTYLHWYLQKPGQSPQLLIYKLTNRFFGVPDRFSGSGSGTDFTLKISRVEAEDVGVYYCSQSIHVPWTFGGGTKVEIKRTVAAPSVFIFPPSDEQLKSGTASVVCLLNNFYPREAKVQWKVDNALQSGNSQESVTEQDSKDSTYSLSSTLTLSKADYEKHKVYACEVTHQGLSSPVTKSFNRGEC
notes: copies: 2 + 2
For B3, the binding result with hCD64 [2] is recorded as “no binding (tested: 1 µM)”.

B4: 12D6-IgG1.3f-P238K (antibody)
heavy: QVQLVQSGAEVKKPGASVKVSCKASGYTFTGYNMNWVRQAPGQGLEWMGNIDPYYGNTNYNQKFKGRVTMTTDTSTSTAYMELRSLRSDDTAVYYCARLGLQLYALDYWGQGTTVTVSSASTKGPSVFPLAPSSKSTSGGTAALGCLVKDYFPEPVTVSWNSGALTSGVHTFPAVLQSSGLYSLSSVVTVPSSSLGTQTYICNVNHKPSNTKVDKRVEPKSCDKTHTCPPCPAPEAEGAKSVFLFPPKPKDTLMISRTPEVTCVVVDVSHEDPEVKFNWYVDGVEVHNAKTKPREEQYNSTYRVVSVLTVLHQDWLNGKEYKCKVSNKALPAPIEKTISKAKGQPREPQVYTLPPSREEMTKNQVSLTCLVKGFYPSDIAVEWESNGQPENNYKTTPPVLDSDGSFFLYSKLTVDKSRWQQGNVFSCSVMHEALHNHYTQKSLSLSPGK
light: DIVMTQTPLSLPVTPGEPASISCRSSQSLVHSNANTYLHWYLQKPGQSPQLLIYKLTNRFFGVPDRFSGSGSGTDFTLKISRVEAEDVGVYYCSQSIHVPWTFGGGTKVEIKRTVAAPSVFIFPPSDEQLKSGTASVVCLLNNFYPREAKVQWKVDNALQSGNSQESVTEQDSKDSTYSLSSTLTLSKADYEKHKVYACEVTHQGLSSPVTKSFNRGEC
notes: Tested as expression supernatant; IgG1.3f carries L234A, L235E and G237A; copies: 2 + 2
Regarding B4, the binding result in the experiment with hCD64 [2] is recorded as “no binding (tested: 1 µM)”.
